From patent publication US20150354006

Test system: recombinant nucleosome

NSD2 E1087Q mutation (Example 7), sequence (chain, as listed by the source E1087Q): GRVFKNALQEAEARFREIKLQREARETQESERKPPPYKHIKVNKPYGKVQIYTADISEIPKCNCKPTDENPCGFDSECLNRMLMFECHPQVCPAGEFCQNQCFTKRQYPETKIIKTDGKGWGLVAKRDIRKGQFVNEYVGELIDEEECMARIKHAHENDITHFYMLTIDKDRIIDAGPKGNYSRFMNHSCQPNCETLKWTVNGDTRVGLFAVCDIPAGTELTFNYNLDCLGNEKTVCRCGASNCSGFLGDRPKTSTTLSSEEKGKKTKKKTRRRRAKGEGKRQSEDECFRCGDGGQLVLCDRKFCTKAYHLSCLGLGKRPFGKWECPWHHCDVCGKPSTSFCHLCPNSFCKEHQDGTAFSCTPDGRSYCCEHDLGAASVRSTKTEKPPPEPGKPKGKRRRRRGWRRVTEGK
NSD2 E1099K mutant protein, purified (Example 7), sequence (chain, as listed by the source E1099K): as the sequence (chain, as listed by the source E1087Q) above, with Q133E, E145K counted along it

| Substance | SAH production by LC/MS/MS in an enzymatic reaction with SAM and nucleosome (FIG. 9) |
| --- | --- |
| NSD2 E1099K mutant protein, purified (Example 7) | the NSD2 E1099K protein gains extra activity on recombinant nucleosome compared to NSD2 WT |
| NSD2 E1087Q mutation (Example 7) | the NSD2 E1087Q mutation has less N-methyltransferase activity in each case |
